Assay results: the supplement of paper PMC7125110
± gives the standard error. This sample holds only a part of the variants without activity.

B1: glmS ribozyme (parent)
chain: AUAAAAGCGCCAGAACUACAGAAAUGUAGUUGACGAGGAGGAGGUUUAUCGAAUUUUCGGCGGAUGCCUCCAAA

Variants of: B1
Assay: self-cleavage kobs at 10000 uM GlcN6P; higher = faster cleavage; RNA array
Conditions: with glucosamine-6-phosphate
Method in brief: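 Weighted Michaelis–Menten fits across concentrations supplied kcat and KM, based on kobs from one- or two-exponential decay fits to normalised per-tile medians. The data came from barcoded ribozyme variants transcribed in situ by E. coli RNA polymerase on sequenced MiSeq chips and tracked at 37 °C by a hybridised Cy3 probe. Glucosamine-6-phosphate (40 μM to 10 mM) in HEPES/KCl/Mg(OAc)2 buffer was flowed in.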

First: AUAAAAGUGCCAGAACUACAGAAAUGUAGUUGACGAGGAGGAGGUUGAUCGAAUUUUCGGCGAAUGCCUACAAA [C8U U47G G63A C70A]
Second: AUAAAAGCGCCAGAACUACAGAAAUGUAGUUGACGCGGAGGAGGUUUAUCGAACUUUCGUAUGAUGCCUCCAAA [A36C U54C G60U C61A G62U]
The “self-cleavage kobs at 10000 uM GlcN6P” value of the first is higher: 0.000324 ± 0.00012 s⁻¹ for the first, under 1e-05 s⁻¹ for the second.

AUAAACGCGCCAGAACUACAGAAAUGUAGUGGACGAGGAGCAGGUUUAUCGAAACUUCGGCGGAUGCUUCCAAA [A6C U31G G41C U54A U55C C68U] and AUAAAAGCGCCAGAACUACAGAAAUGUAGUUGAUGAGGAGGAGGAUUAUAGAAUUUUCGGCGGAUGCCUCCAAA [C34U U45A C50A] cannot be ordered by “self-cleavage kobs at 10000 uM GlcN6P” value: under 1e-05 s⁻¹ for the first, under 1e-05 s⁻¹ for the second.

AUAAAAGCGCCAGAACUACAGAAAUGUAGUUGACGAGGAGCAGGUUUAUCGAAUUGUCGGCUGAUGCCUCCAAA [G41C U56G G62U] and AUAAAAGCGCCAGAACUACAGAAAUGUAGUUGACGUGGAGGAGGUUUAGCGAAUUUUCGGCGCAUGCCUCCAAA [A36U U49G G63C] cannot be ordered by “self-cleavage kobs at 10000 uM GlcN6P” value: under 1e-05 s⁻¹ for the first, under 1e-05 s⁻¹ for the second.

First: AUAAAAGUGCCAUAUUUACAGAAAUGUAGUUCACGAGGAGGAGGUUUUUCGAAUUUUCGGCGGAUGCCUCCAAA [C8U G13U A15U C16U G32C A48U]
Second: AUAAAAGCGCCAGAAGUACAGAAAUGUAGUUGACGAGGAGGAGGUUUAUCGAAUGUUUGGCGGAUGCCUCCAAA [C16G U55G C58U]
The “self-cleavage kobs at 10000 uM GlcN6P” value of the first is lower: under 1e-05 s⁻¹ for the first, 5.56e-05 ± 2.5e-05 s⁻¹ for the second.

Compared with AUAAAAGCGCGAGAACUACAGAAAUGUAGUUGACGAGGAGGAGGUUUAUCGAAUUUUCGGCGGAUCCCUCCAAA [C11G G66C], AUAAAAGCGCCAGAACUACAGAAAUGUACUUAACGAGGAGGAGGUUUAUCGAAAUUUCGGCGGAUGCCUCCAAA [G29C G32A U54A] is higher in “self-cleavage kobs at 10000 uM GlcN6P” value: under 1e-05 s⁻¹ for the first, 0.000923 ± 0.00011 s⁻¹ for the second.

First: AUAAAAGCGCCAGAAGUACAGAAAUGUAGUUGACGAGGAGGAGGUUUAUCGAACUUUCGGCGGAUGUCUCCAAA [C16G U54C C67U]
Second: AUAAAAGCGCCAGAACUACAGAAAUGUAGUUGACGAGGAGCAGGUUUAUCGAAUUUUCUCCGGAUGCCUCCAAA [G41C G59U G60C]
The “self-cleavage kobs at 10000 uM GlcN6P” value of the first is higher: 0.000749 ± 0.00015 s⁻¹ for the first, under 1e-05 s⁻¹ for the second.

AUAAAAGCACCAGAACUACAGAAAUGUAGUUGUCGAGGAGGAGGUUUAUCAUAUAUUCGGCGGAUGCCUCCAAA [G9A A33U G51A A52U U55A] and AUAAAAGCGCCAGAACUACAGAAAUGUAGUUGACGAGGAGGAGGUUUAUCGAACUUUGGGCGCAUGCCUCCAAA [U54C C58G G63C] cannot be ordered by “self-cleavage kobs at 10000 uM GlcN6P” value: under 1e-05 s⁻¹ for the first, under 1e-05 s⁻¹ for the second.

Compared with AUAAAAGCGCCAGAACUACAGAAAUGUAGUUGACGAGGAGGAGCUUUAUCGAAUUGUCGGCGGAUGCCUCCAAA [G44C U56G], AUAAAAGCGCCAGAACUACAGAAAUGUAGUUGACGGGGAGGCGGUUUAUCGAAUUUUCUGCGGAUGCCUCCAAA [A36G A42C G59U] is lower in “self-cleavage kobs at 10000 uM GlcN6P” value: 5.6e-05 ± 1.2e-05 s⁻¹ for the first, under 1e-05 s⁻¹ for the second.

AUAAAAGCGUCAGAACUACAGAAAUGUAGUUGGCGAGGAGGAGGUUUAUCGAAUUUUCGGCGGAUGCUUCCAAA [C10U A33G C68U] and AUAAAAGCGCCUGAACUACAGAAAUGUAGUUGACGAGGAGGAGGUUUCCAGAAUUUUCGGCGGAUGCUUCCAAA [A12U A48C U49C C50A C68U] cannot be ordered by “self-cleavage kobs at 10000 uM GlcN6P” value: under 1e-05 s⁻¹ for the first, under 1e-05 s⁻¹ for the second.

AUAAAAGCGGCAGAACUACAGAAAUGUAGUUGACGAGGAGGAGGUUUAUCGAAUUUUCGGAGGAUUCCUCCAAA [C10G C61A G66U] and AUAAAAGCGCCAGAACUACAGAAAUGUAGUUGACGAGGAGGAGGUUUAUCGAAUUUUCGGUUGAUGUCUCCAAA [C61U G62U C67U] cannot be ordered by “self-cleavage kobs at 10000 uM GlcN6P” value: under 1e-05 s⁻¹ for the first, under 1e-05 s⁻¹ for the second.

AUAAAAGCGCCAGAAGUACAGAAAUGUAGUUGUCUAGGAGGAGGUUUAUCGAAUUUUCGGCGUCUGCCUCCAAA [C16G A33U G35U G63U A64C] and AUAAAAGCGCCAGAACUACAGAAAUGUAGUUCACGAUGAGGAGCUUUAUCGCAUUUUCGGCGGAUGCCUCCAAA [G32C G37U G44C A52C] cannot be ordered by “self-cleavage kobs at 10000 uM GlcN6P” value: under 1e-05 s⁻¹ for the first, under 1e-05 s⁻¹ for the second.

AUAAAAGCGCUAGAACUACAGAAAUGUAGUUGACGAGGAAGAGGUUUAUCGCAUUUUCGGCCGAUGCCUCCAAA [C11U G40A A52C G62C] and AUAAACGCGCCAGAAUUACAGAAAUGUAGUUGACGAGUAGGAGGUUUAGCUAAUUUUCCGCGGAAGCCUCCAAA [A6C C16U G38U U49G G51U G59C U65A] cannot be ordered by “self-cleavage kobs at 10000 uM GlcN6P” value: under 1e-05 s⁻¹ for the first, under 1e-05 s⁻¹ for the second.

Compared with AUAAAAGCGCCAGAACUACAGAAAUGUAGUUGACGAGGAGGAGGUUUAUCGAAUUUUCGGCGGACGCCCCCAAA [U65C U69C], AUAAAAGCGCCAGUACUACAGAAAUGUAGUUGACGAGGAGGAGGUUUACCGAAUUUUCGGCGGAUGCCUACAAA [A14U U49C C70A] is lower in “self-cleavage kobs at 10000 uM GlcN6P” value: 0.000106 ± 2.2e-05 s⁻¹ for the first, under 1e-05 s⁻¹ for the second.

AUAAAAGCGCCUGAACUACAGAAAUGUAGUUGACGAGGAGGAGGUUUAUGGCAUUUUCGGCGGAUGCCUGCAAA [A12U C50G A52C C70G] and AUAAAAGCGCCCGAACUACAGAAAUGUAGUUGACGAGGAGAAGGUUUAUCGAAUUUUCGGCGGAUGACUCCAAA [A12C G41A C67A] are within error of each other in “self-cleavage kobs at 10000 uM GlcN6P” value: 7.94e-05 ± 2.3e-05 s⁻¹ for the first, 7.76e-05 ± 2.9e-05 s⁻¹ for the second.

AUAAAAGCGCCAGAACUACAGAAAUGUAGUUCACGCGGAGGAGGUUUAUCGAAUUUUCGGCGGAUGUCUCCAAA [G32C A36C C67U] and AUAAAAGCGCCAGAACUACAGAAAUGUAUUUGACGAGGAGGAGGUGUAUCGAAUUUUCGGGGGAUACCUCCAAA [G29U U46G C61G G66A] cannot be ordered by “self-cleavage kobs at 10000 uM GlcN6P” value: under 1e-05 s⁻¹ for the first, under 1e-05 s⁻¹ for the second.

First: AUAAAAACGCCAGAACUACAGAAAUGUAGUUGACGAGGAGGAGGUUUAUCGAAUUUUCGGCGGGUGUCUGCAAA [G7A A64G C67U C70G]
Second: AUAAAAGCGCCCGAACUACAGAAAUGUAGUUGACGAGGAGGAGGUUUAUCGAAUUGUCGGCGGAUGCCUGCAAA [A12C U56G C70G]
The “self-cleavage kobs at 10000 uM GlcN6P” value of the first is lower: under 1e-05 s⁻¹ for the first, 5.35e-05 ± 1.3e-05 s⁻¹ for the second.

Going from AUAAAAGCGCCAGAACUACAGAAAUGUAGUUGACGAGGAGGAGGACUAUCGAAUUUUCGGCGGAUGGCUCCAAA [U45A U46C C67G] to AUAAAAGCGCGAGAACUACAGAAAUGUAGCUGACGAGGAGGCGGUUUAUCGAAUGUUCGGAAGAUGCCUCGAAA [C11G U30C A42C U55G C61A G62A C71G], the “self-cleavage kobs at 10000 uM GlcN6P” value falls from 0.000673 ± 0.00013 s⁻¹ to under 1e-05 s⁻¹.
